Source: patent US9012420B2, “Aptamer for chymase, and use thereof” (Ribomic Inc., priority 2009, dated 2015)

Legend:
chymase [1] = target: T1, chymase (Homo sapiens, UniProt P23946 P23946:22-247); assay: inhibition; angiotensin I; recombinant 0.239; details: tags: human skin mast cell, Calbiochem
T1 sequence: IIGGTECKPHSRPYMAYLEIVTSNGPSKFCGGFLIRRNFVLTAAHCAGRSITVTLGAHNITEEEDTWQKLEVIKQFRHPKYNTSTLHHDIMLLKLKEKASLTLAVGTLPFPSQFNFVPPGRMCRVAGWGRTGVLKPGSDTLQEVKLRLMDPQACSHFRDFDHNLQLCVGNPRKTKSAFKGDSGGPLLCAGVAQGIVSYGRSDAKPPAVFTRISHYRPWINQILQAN
Procedure: (§1) The total volume of solution for an enzyme reaction in the assay was set to 50 μL, and the reaction was performed in solution C buffer. First, 0.3-0.75 ng of chymase (recombinant, (manufactured by SIGMA) or native (manufactured by Calbiochem)) was diluted with solution C to give 5 μL thereof. Here, the recombinant is chymase expressed by yeast, and the native is chymase purified from human skin mast cell. The nucleic acid was serially diluted with solution C at a concentration of 0.0027-2 μM to give 25 μL thereof. The chymase solution (5 μL) and the nucleic acid solution (25 μL) were mixed, and the mixture was incubated at 37° C. for 5 min. […] The whole mixture was centrifuged at 4° C., 14000 rpm for 10 min, and the supernatant (30 μL) was used for the next fluorescence induction reaction.
(§2) The above-mentioned supernatant (30 μL) was added to a 96 well plate (black, manufactured by Costar), a solution (15 μL) of 2% o-phthalaldehyde (manufactured by SIGMA) in methanol and 0.3M NaOH solution (170 μL) were added to each well, and the mixture was incubated at room temperature for 10 min. […] The plate was set on a microplate reader SpectraMax190 (manufactured by Molecular device) and the fluorescence intensity was measured at an excitation wavelength of 355 nm and a fluorescence wavelength of 460 nm.

chymase [2] = target: T1, chymase; assay: inhibition; Suc-AAPF-MCA, 37 C, solution C; details: tags: recombinant, expressed in yeast, SIGMA
Procedure: Here, Suc is a protecting succinyl group, and MCA is a 4-methylcoumaryl-7-amide group; upon cleavage of the C-terminal side of phenylalanine, AMC (7-amino-4-methyl-coumarine) is released. By detecting the fluorescence of this AMC, the enzyme activity of chymase can be determined. The assay was performed using a 96-well plate (F16 Black Maxisorp Fluoronunc, manufactured by Nunc), with a reaction mixture volume of 100 μL, in solution C as a buffer solution. First, each nucleic acid was serially diluted to 0.0027-2 μM concentrations in solution C to obtain 50 μL solutions. After 10 μL of the 1 mM substrate prepared in solution C was added thereto, the plate was set to the microplate reader SpectraMax190 (manufactured by Molecular Devices Corporation), and incubated at 37° C. for 5 minutes. Separately, 0.05 μg (or 0.005 μg) of chymase (recombinant, manufactured by SIGMA) was diluted in solution C to obtain a 40 μL chymase solution, and incubated at 37° C. for 5 minutes. The chymase solution was added to the mixture of the nucleic acid and substrate to initiate an enzyme reaction. The final chymase concentration in the reaction mixture was 16.7 nM (or 1.67 nM), the final substrate concentration being 100 μM. The plate containing the reaction mixture was set to the microplate reader SpectraMax190 (manufactured by Molecular Devices Corporation), and examined for time-dependent changes in the fluorescence intensity at 37° C. for 5 minutes (or 30 minutes) (excitation wavelength 380 nm, detection wavelength 460 nm). A linear approximation of the increase in the fluorescence of the AMC released from the substrate by chymase activity was generated, and its slope was taken as the initial velocity […]. For control, samples were treated and analyzed in the same manner in two cases: use of a 30N or 40N (a nucleotide of 30 or 40 consecutive bases represented by N; N is A, G, C or T) nucleic acid pool (negative control), and use of chymostatin, a known chymotrypsin-like serine protease inhibitor (positive control). Taking the initial reaction velocity without the nucleic acid and inhibitor (V_0) as a 100% enzyme activity, the inhibitory rate of each test substance was calculated using the following equation: […]
The chymase inhibitory activity was measured in the same manner as in Example 3.

chymase [3] = target: T1, chymase; assay: inhibition; angiotensin I; recombinant 0.310; details: tags: human skin mast cell, Calbiochem; label: 5' biotin
chymase [4] = target: T1, chymase; assay: inhibition; angiotensin I; recombinant 0.326; details: tags: human skin mast cell, Calbiochem
Procedure: as §1, §2

chymase [5] = target: T1, chymase; assay: inhibition; angiotensin I; recombinant 0.085; details: tags: human skin mast cell, Calbiochem
chymase [6] = target: T1, chymase; assay: inhibition; angiotensin I; recombinant 0.089; details: tags: human skin mast cell, Calbiochem
Procedure: as §1, §2

chymase [7] = target: T1, chymase; assay: inhibition; angiotensin I; recombinant 0.394; details: tags: human skin mast cell, Calbiochem
Procedure: as §1, §2

chymase [8] = target: T1, chymase; assay: inhibition; angiotensin I; recombinant 0.289; details: tags: human skin mast cell, Calbiochem
Procedure: as §1, §2

chymase [9] = target: T1, chymase; assay: inhibition; angiotensin I; recombinant 0.414; details: tags: human skin mast cell, Calbiochem
Procedure: as §1, §2

chymase [10] = target: T1, chymase; assay: inhibition; angiotensin I; recombinant 0.210; details: tags: human skin mast cell, Calbiochem
Procedure: as §1, §2

chymase [11] = target: T1, chymase; assay: inhibition; angiotensin I; recombinant 0.687; details: tags: human skin mast cell, Calbiochem
Procedure: as §1, §2

chymase [12] = target: T1, chymase; assay: inhibition; angiotensin I; recombinant 0.125; details: tags: human skin mast cell, Calbiochem
Procedure: as §1, §2

chymase [13] = target: T1, chymase; assay: inhibition; angiotensin I; recombinant 0.065; details: tags: human skin mast cell, Calbiochem
Procedure: as §1, §2

chymase [14] = target: T1, chymase; assay: inhibition; angiotensin I; recombinant 0.080; details: tags: human skin mast cell, Calbiochem
chymase [15] = target: T1, chymase; assay: inhibition; angiotensin I; recombinant 0.078; details: tags: human skin mast cell, Calbiochem
Procedure: as §1, §2

chymase [16] = target: T1, chymase; assay: inhibition; angiotensin I; recombinant 0.328; details: tags: human skin mast cell, Calbiochem
Procedure: as §1, §2

chymase [17] = target: T1, chymase; assay: inhibition; angiotensin I; recombinant 0.377; details: tags: human skin mast cell, Calbiochem
Procedure: as §1, §2

chymase [18] = target: T1, chymase; assay: inhibition; angiotensin I; recombinant 0.426; details: tags: human skin mast cell, Calbiochem; label: 5' biotin
chymase [19] = target: T1, chymase; assay: inhibition; angiotensin I; recombinant 0.161; details: tags: human skin mast cell, Calbiochem
Procedure: as §1, §2

chymase [20] = target: T1, chymase; assay: inhibition; angiotensin I; recombinant 0.419; details: tags: human skin mast cell, Calbiochem; label: 3' biotin
chymase [21] = target: T1, chymase; assay: inhibition; angiotensin I; recombinant 0.153; details: tags: human skin mast cell, Calbiochem
Procedure: as §1, §2

chymase [22] = target: T1, chymase; assay: inhibition; angiotensin I; recombinant 0.057; details: tags: human skin mast cell, Calbiochem
chymase [23] = target: T1, chymase; assay: inhibition; angiotensin I; recombinant 0.137; details: tags: human skin mast cell, Calbiochem
chymase [24] = target: T1, chymase; assay: inhibition; angiotensin I; recombinant 0.039; details: tags: human skin mast cell, Calbiochem

B1: SEQ 70 (mixed)
mixed: GGGTTAGAUAGAGUUAAAAACCC
modifications: 2'-F U and C; 2'-OMe 1-3,7,8,10,13,16-20; DNA T4,T5; 5' and 3' idT
- IC50 (chymase [1]): 478 nM

B2: 56(51) (mixed)
RNA: GGGUUAGAUAGAGUUAAAAACCC
modifications: 2'-F U and C; 2'-OMe 1-3,7,10,13,16-20; DNA A8; 5' and 3' idT
- IC50 (chymase [2]; label: 5' biotin): 29 nM
- IC50 (chymase [3]): 429 nM

B3: 56(26) (ssRNA)
RNA: GGGUUAGAUAGAGUUAAAAACCC
modifications: 2'-F U and C; 2'-OMe 1-3,7,8,10,13,16-20; 5' and 3' idT
- IC50 (chymase [4]): 743 nM
- IC50 (chymase [2]): 54 nM

B4: 56(33) (ssRNA)
RNA: GGGUUAGAUAGAGUUAAAAACCC
modifications: 2'-F U and C; 2'-OMe 1-3,8,10,13,16-20; PS 6-7; 5' and 3' idT
- IC50 (chymase [5]): 291 nM
- IC50 (chymase [2]): 35 nM

B5: 56(31) (ssRNA)
RNA: GGGUUAGAUAGAGUUAAAAACCC
modifications: 2'-F U and C; 2'-OMe 1-3,7,10,13,16-20; 5' and 3' idT
- IC50 (chymase [6]): 266 nM

B6: 56(48) (mixed)
RNA: GGGUUAGAUAGAGUUAAAAACCC
modifications: 2'-F U; 2'-OMe 1-3,7,8,10,13,16-20; DNA C21-C23; 5' and 3' idT
- IC50 (chymase [2]): 36 nM
- IC50 (chymase [7]): 621 nM

B7: 69(2) (ssRNA)
RNA: AAAGGGUUAGAUAGAGUUAAAAACCC
modifications: 2'-F U and C; 2'-OMe 1-6,10,11,13,16,19-23; 5' and 3' idT
- IC50 (chymase [2]): 48 nM
- IC50 (chymase [8]): 752 nM

B8: 56(44) (ssRNA)
RNA: GGGUUAGAUAGAGUUAAAAACCC
modifications: 2'-F U and C; 2'-OMe 1-3,7,8,10,13,16-20; 5' peptide 2 (Cys-Phe, disulfide); 3' idT
- IC50 (chymase [2]): 42 nM
- IC50 (chymase [9]): 643 nM

B9: 56(30) (ssRNA)
RNA: GGGUUAGAUAGAGUUAAAAACCC
modifications: 2'-F U and C; 2'-OMe 1-3,8,10,13,16-20; 5' and 3' idT
- IC50 (chymase [2]): 34 nM
- IC50 (chymase [10]): 521 nM

B10: 56(42) (ssRNA)
RNA: GGGUUAGAUAGAGUUAAAAACCC
modifications: 2'-F U and C; 2'-OMe 1-3,7,8,10,13,16-20; 5' cholesterol; 3' idT
- IC50 (chymase [2]): 71 nM
- IC50 (chymase [11]): 601 nM

B11: 69(1) (ssRNA)
RNA: AAAGGGUUAGAUAGAGUUAAAAACCC
modifications: 2'-F U and C; 2'-OMe 1-6,10,11,13,16,19-23; PS 9-10; 5' and 3' idT
- IC50 (chymase [12]): 480 nM
- IC50 (chymase [2]): 44 nM

B12: SEQ 72 (mixed)
mixed: GGGTTAGAUAGAGTUAAAAACCC
modifications: 2'-F U; 2'-OMe 1-3,7,8,10,13,16-20; DNA T4,T5,T14,C21-C23; 5' and 3' idT
- IC50 (chymase [13]): 120 nM

B13: 56(29) (ssRNA)
RNA: GGGUUAGAUAGAGUUAAAAACCC
modifications: 2'-F U and C; 2'-OMe 1-3,7,8,10,13,16-20; PS 5-6,6-7; 5' and 3' idT
- IC50 (chymase [2]): 36 nM
- IC50 (chymase [14]): 366 nM

B14: 56(32) (ssRNA)
RNA: GGGUUAGAUAGAGUUAAAAACCC
modifications: 2'-F U and C; 2'-OMe 1-3,10,13,16-20; 5' and 3' idT
- IC50 (chymase [15]): 185 nM

B15: 56(43) (ssRNA)
RNA: GGGUUAGAUAGAGUUAAAAACCC
modifications: 2'-F U and C; 2'-OMe 1-3,7,8,10,13,16-20; 5' peptide 1 (Phe-Cys, disulfide); 3' idT
- IC50 (chymase [16]): 591 nM
- IC50 (chymase [2]): 35 nM

B16: 56(45) (ssRNA)
RNA: GGGUUAGAUAGAGUUAAAAACCC
modifications: 2'-F U and C; 2'-OMe 1-3,7,8,10,13,16-20; 5' idT; 3' PEG 40 kDa
- IC50 (chymase [2]): 59 nM
- IC50 (chymase [17]): 303 nM

B17: 56(46) (ssRNA)
RNA: GGGUUAGAUAGAGUUAAAAACCC
modifications: 2'-F U and C; 2'-OMe 1-3,7,8,10,13,16-20; 5' and 3' idT
- IC50 (chymase [18]): 742 nM
- IC50 (chymase [2]; label: 5' biotin): 49 nM

B18: SEQ 71 (mixed)
mixed: GGGUUAGAUAGAGTUAAAAACCC
modifications: 2'-F U and C; 2'-OMe 1-3,7,8,10,13,16-20; DNA T14; 5' and 3' idT
- IC50 (chymase [19]): 341 nM

B19: 56(47) (ssRNA)
RNA: GGGUUAGAUAGAGUUAAAAACCC
modifications: 2'-F U and C; 2'-OMe 1-3,7,8,10,13,16-20; 5' and 3' idT
- IC50 (chymase [20]): 542 nM
- IC50 (chymase [2]; label: 3' biotin): 37 nM

B20: 56(50) (mixed)
RNA: GGGUUAGAUAGAGUUAAAAACCC
modifications: 2'-F U and C; 2'-OMe 1-3,7,10,13,16-20; DNA A8; 5' and 3' idT
- IC50 (chymase [2]): 27 nM
- IC50 (chymase [21]): 325 nM

B21: 56(34) (ssRNA)
RNA: GGGUUAGAUAGAGUUAAAAACCC
modifications: 2'-F U and C; 2'-OMe 1-3,7,10,13,16-20; PS 6-7; 5' and 3' idT
- IC50 (chymase [22]): 162 nM
- IC50 (chymase [2]): 31 nM

B22: 56(28) (ssRNA)
RNA: GGGUUAGAUAGAGUUAAAAACCC
modifications: 2'-F U and C; 2'-OMe 1-3,7,8,10,13,16-20; PS 6-7; 5' and 3' idT
- IC50 (chymase [2]): 44 nM
- IC50 (chymase [23]): 410 nM

B23: 56(35) (ssRNA)
RNA: GGGUUAGAUAGAGUUAAAAACCC
modifications: 2'-F U and C; 2'-OMe 1-3,10,13,16-20; PS 6-7; 5' and 3' idT
- IC50 (chymase [2]): 24 nM
- IC50 (chymase [24]): 120 nM
